Measured values: PMC6275602 (Cellular & Molecular Biology Letters, 2012)
Like-named read-outs stand apart in the source and are kept apart here.

Legend:
[1] = target: T1, human low-density lipoprotein (LDL; d = 1.019-1.063 g/ml) (human); assay: SPR
[2] = target: T1, human low-density lipoprotein (LDL; d = …); assay: SPR; remark: listed apart in the source

B1: sPLA2-X-HisTag, purified recombinant human (enzyme, UniProt O15496 43-165, looked up)
chain: GILELAGTVGCVGPRTPIAYMKYGCFCGLGGHGQPRDAIDWCCHGHDCCYTRAEEAGCSPKTERYSWQCVNQSVLCGPAENKCQELLCKCDQEIANCLAQTEYNLKYLFYPQFLCEPDSPKCD
Q: For B1, which Kd [1] is on record?
A: 110 nM

Q: What about the koff [1] of the same binder?
A: 0.00886 s⁻¹

Q: And the kon [1]?
A: 82500 M⁻¹ s⁻¹

Q: What about the Kd [2] of the same binder?
A: 3.1 nM

Q: And the koff [2]?
A: 0.00024 s⁻¹

Q: And the kon [2]?
A: 65400 M⁻¹ s⁻¹
